Experimental data published in patent US20040072159A1, “Bzip type transcription factors regulating the expression of rice storage protein” (published 2004).

T1: RISBZ1 (Oryza sativa, UniProt Q6ZLB0 SEQ:1-436)
T1 sequence: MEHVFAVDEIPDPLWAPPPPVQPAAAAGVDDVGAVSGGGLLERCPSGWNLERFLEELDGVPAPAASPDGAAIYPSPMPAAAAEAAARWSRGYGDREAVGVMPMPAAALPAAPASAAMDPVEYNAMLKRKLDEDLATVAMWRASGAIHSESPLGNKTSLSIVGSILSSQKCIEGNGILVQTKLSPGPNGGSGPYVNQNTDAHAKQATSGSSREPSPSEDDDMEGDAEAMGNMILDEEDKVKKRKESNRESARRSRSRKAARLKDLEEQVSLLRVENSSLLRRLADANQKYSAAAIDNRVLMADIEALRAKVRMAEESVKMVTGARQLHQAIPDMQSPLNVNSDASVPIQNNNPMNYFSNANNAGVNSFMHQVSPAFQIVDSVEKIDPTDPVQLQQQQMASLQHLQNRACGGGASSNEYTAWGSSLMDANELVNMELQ

T2: Opaque2 (Zea mays, UniProt P12959 P12959:1-453)
T2 sequence: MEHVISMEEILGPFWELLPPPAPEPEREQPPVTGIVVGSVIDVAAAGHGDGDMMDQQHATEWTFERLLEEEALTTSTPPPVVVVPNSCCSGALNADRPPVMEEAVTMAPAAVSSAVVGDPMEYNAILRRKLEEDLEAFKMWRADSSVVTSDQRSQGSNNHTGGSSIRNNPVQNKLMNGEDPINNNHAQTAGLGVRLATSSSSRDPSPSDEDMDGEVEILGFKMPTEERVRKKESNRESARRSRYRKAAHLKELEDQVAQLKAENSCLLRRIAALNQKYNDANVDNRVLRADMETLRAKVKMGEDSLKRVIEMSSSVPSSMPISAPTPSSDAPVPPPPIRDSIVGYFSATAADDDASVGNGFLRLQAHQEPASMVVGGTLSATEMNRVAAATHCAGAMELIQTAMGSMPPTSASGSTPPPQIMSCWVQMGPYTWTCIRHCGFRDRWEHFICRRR


How the values were obtained:
[1] = target: the molecule itself; assay: gel shift assay of the Examples
[2] = target: T1, RISBZ1; assay: cell_activity; 1x21-bp reporter; 5x21-bp 127.1-fold
Description: (§1) In addition, reporter plasmids, into which the GUS gene, and one or three repeat(s) of the 12-bp GCN4 motif or one or five repeat(s) of the 21-bp GCN4 motif were inserted, were constructed. For negative control experiments, a reporter plasmid comprising four repeats of a mutant 12-bp GCN4 motif and the GUS reporter gene was used. The mutant 12-bp GCN4 motif has a mutation in the target sequence that is recognized by the RISBZ1 and O2. These plasmid constructs were introduced alone or in combination with other reporter or effector plasmid into rice protoplast cells prepared from its callus culture, and the GUS activity was assayed. When the reporter plasmid or effector plasmid was introduced alone into the protoplast, the GUS activity was detected at a low level. […] Even in the presence of these effector plasmids, the transcriptional activity of the GUS gene downstream of the mutant 12-bp GCN4 motif was the same level as that of background. […] The transcriptional activity of the reporter gene induced by the RISBZ1 gene product was slightly higher than that induced by the O2 gene product. […] 1 to 12 copies of 21-bp GCN motif were assayed, and the transcriptional activity was enhanced proportionately up to 9 copies. […]

[3] = target: T2, Opaque2; assay: cell_activity; 1x21-bp reporter; 5x21-bp 114.7-fold
Description: as §1

Binder	binding result [1]	activity [2]	activity [3]
full-length RISBZ1 protein (other, Untagged full-length protein translated in vitro from pET8c (TNT coupled wheat germ extract); the crude extract was used in the gel shift assay; also called rice seed b-Zipper 1) MEHVFAVDEIPDPLWAPPPPVQPAAAAGVDDVGAVSGGGLLERCPSGWNLERFLEELDGVPAPAASPDGAAIYPSPMPAAAAEAAARWSRGYGDREAVGVMPMPAAALPAAPASAAMDPVEYNAMLKRKLDEDLATVAMWRASGAIHSESPLGNKTSLSIVGSILSSQKCIEGNGILVQTKLSPGPNGGSGPYVNQNTDAHAKQATSGSSREPSPSEDDDMEGDAEAMGNMILDEEDKVKKRKESNRESARRSRSRKAARLKDLEEQVSLLRVENSSLLRRLADANQKYSAAAIDNRVLMADIEALRAKVRMAEESVKMVTGARQLHQAIPDMQSPLNVNSDASVPIQNNNPMNYFSNANNAGVNSFMHQVSPAFQIVDSVEKIDPTDPVQLQQQQMASLQHLQNRACGGGASSNEYTAWGSSLMDANELVNMELQ	binds	–	–
21-bp GCN4 reporter (dsDNA) DNA 1: GTTTGTCATGGCTGAGTCATG DNA 2: CATGACTCAGCCATGACAAAC	–	43.9 fold	37.9 fold
